Laboratory results: IntAct's records for PubMed 33053321

B1: Signal recognition particle subunit SRP54 (Saccharomyces cerevisiae), P20424 (parent)
chain: MVLADLGKRINSAVNNAISNTQDDFTTSVDVMLKGIVTALLESDVNIALVSKLRNNIRSQLLSENRSEKSTTNAQTKKLIQKTVFDELCKLVTCEGSEEKAFVPKKRKTNIIMFVGLQGSGKTTSCTKLAVYYSKRGFKVGLVCADTFRAGAFDQLKQNAIRARIPFYGSYTETDPAKVAEEGINKFKKEKFDIIIVDTSGRHHQEEELFQEMIEISNVIKPNQTIMVLDASIGQAAEQQSKAFKESSDFGAIILTKMDGHARGGGAISAVAATNTPIIFIGTGEHIHDLEKFSPKSFISKLLGIGDIESLFEQLQTVSNKEDAKATMENIQKGKFTLLDFKKQMQTIMKMGPLSNIAQMIPGMSNMMNQVGEEETSQKMKKMVYVLDSMTKEELESDGRMFIEEPTRMVRVAKGSGTSVFEVEMILMQQQMMARMAQTATQQQPGAPGANARMPGMPNMPGMPNMPGMPNMPGMPKVTPQMMQQAQQKLKQNPGLMQNMMNMFGGGMGGGMGGGMPDMNEMMKMMQDPQMQQMAKQFGMG
partner: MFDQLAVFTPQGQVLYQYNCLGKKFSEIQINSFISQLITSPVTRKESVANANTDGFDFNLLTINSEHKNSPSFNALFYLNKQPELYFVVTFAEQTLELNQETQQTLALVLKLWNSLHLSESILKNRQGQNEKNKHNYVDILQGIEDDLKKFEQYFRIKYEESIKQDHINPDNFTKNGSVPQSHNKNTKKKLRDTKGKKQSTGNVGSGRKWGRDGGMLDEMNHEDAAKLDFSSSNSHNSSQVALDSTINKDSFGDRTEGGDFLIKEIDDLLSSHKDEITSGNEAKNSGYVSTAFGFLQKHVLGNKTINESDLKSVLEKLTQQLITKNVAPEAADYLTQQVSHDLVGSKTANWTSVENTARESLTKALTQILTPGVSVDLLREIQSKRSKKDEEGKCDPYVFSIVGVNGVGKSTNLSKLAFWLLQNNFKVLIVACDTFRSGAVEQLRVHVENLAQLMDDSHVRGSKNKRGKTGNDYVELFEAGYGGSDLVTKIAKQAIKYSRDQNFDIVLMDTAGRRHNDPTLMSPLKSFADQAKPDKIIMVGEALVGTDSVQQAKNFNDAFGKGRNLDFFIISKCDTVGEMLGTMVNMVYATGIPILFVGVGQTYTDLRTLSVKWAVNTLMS
B2: Signal recognition particle subunit SRP54 (Homo sapiens), P61011 (parent)
chain: MVLADLGRKITSALRSLSNATIINEEVLNAMLKEVCTALLEADVNIKLVKQLRENVKSAIDLEEMASGLNKRKMIQHAVFKELVKLVDPGVKAWTPTKGKQNVIMFVGLQGSGKTTTCSKLAYYYQRKGWKTCLICADTFRAGAFDQLKQNATKARIPFYGSYTEMDPVIIASEGVEKFKNENFEIIIVDTSGRHKQEDSLFEEMLQVANAIQPDNIVYVMDASIGQACEAQAKAFKDKVDVASVIVTKLDGHAKGGGALSAVAATKSPIIFIGTGEHIDDFEPFKTQPFISKLLGMGDIEGLIDKVNELKLDDNEALIEKLKHGQFTLRDMYEQFQNIMKMGPFSQILGMIPGFGTDFMSKGNEQESMARLKKLMTIMDSMNDQELDSTDGAKVFSKQPGRIQRVARGSGVSTRDVQELLTQYTKFAQMVKKMGGIKGLFKGGDMSKNVSQSQMAKLNQQMAKMMDPRVLHHMGGMAGLQSMMRQFQQGAAGNMKGMMGFNNM
partner: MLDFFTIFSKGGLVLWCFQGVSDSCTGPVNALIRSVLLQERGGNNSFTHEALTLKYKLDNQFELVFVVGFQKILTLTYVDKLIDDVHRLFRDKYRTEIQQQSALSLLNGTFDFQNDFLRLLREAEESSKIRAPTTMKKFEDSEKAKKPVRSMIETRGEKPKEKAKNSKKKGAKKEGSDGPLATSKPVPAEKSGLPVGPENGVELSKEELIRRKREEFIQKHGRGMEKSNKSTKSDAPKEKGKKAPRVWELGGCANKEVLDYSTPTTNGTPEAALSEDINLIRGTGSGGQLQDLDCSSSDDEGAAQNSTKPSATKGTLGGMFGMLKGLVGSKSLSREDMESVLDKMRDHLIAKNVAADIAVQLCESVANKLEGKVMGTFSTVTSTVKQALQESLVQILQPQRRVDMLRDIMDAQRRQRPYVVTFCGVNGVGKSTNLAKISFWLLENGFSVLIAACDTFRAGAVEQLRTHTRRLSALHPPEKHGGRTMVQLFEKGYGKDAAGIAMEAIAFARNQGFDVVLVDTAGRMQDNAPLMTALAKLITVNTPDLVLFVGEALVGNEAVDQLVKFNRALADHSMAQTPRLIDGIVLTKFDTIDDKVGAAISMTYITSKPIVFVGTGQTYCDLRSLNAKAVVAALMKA

Variants of: B1
Details: with srpr_yeast SRP101, P32916

| Variant | effect of a mutation on the interaction |
| --- | --- |
| MVLADLGKRINSAVNNAISNTQDDFTTSVDVMLKGIVTALLESDVNIALVSKLRNNIRSQLLSENRSEKSTTNAQTKKLIQKTVFDELCKLVTCEGSEEKAFVPKKRKTNIIMFVGLQGSGKTTSCTKLAVYYSKRGFKVGLVCADTFRAGAFDQLKQNAIRARIPFYGSYTETDPAKVAEEGINKFKKEKFDIIIVDTSGRHHQEEELFQEMIEISNVIKPNQTIMVLDASIEQAAEQQSKAFKESSDFGAIILTKMDGHARGGGAISAVAATNTPIIFIGTGEHIHDLEKFSPKSFISKLLGIGDIESLFEQLQTVSNKEDAKATMENIQKGKFTLLDFKKQMQTIMKMGPLSNIAQMIPGMSNMMNQVGEEETSQKMKKMVYVLDSMTKEELESDGRMFIEEPTRMVRVAKGSGTSVFEVEMILMQQQMMARMAQTATQQQPGAPGANARMPGMPNMPGMPNMPGMPNMPGMPKVTPQMMQQAQQKLKQNPGLMQNMMNMFGGGMGGGMGGGMPDMNEMMKMMQDPQMQQMAKQFGMG [G234E] | disrupting interaction strength |

Variants of: B2
Details: with srpra_human SRPRA

| Variant | effect of a mutation on the interaction |
| --- | --- |
| G226E | disrupting interaction strength |
| T115A | decreasing interaction strength |
